# Measured values published in the supplement of paper PMC7125110.
# ± gives the standard error. Variants at the floor of the assay were thinned out.
# B1: glmS ribozyme (parent)
# chain: AUAAAAGCGCCAGAACUACAGAAAUGUAGUUGACGAGGAGGAGGUUUAUCGAAUUUUCGGCGGAUGCCUCCAAA
# How the values were obtained:
# Details in all cases: with glucosamine-6-phosphate
# glucosamine-6-phosphate [1] = variants of: B1; assay: self-cleavage kobs at 40 uM GlcN6P; higher = faster cleavage; RNA array
# Procedure, shortened: (§1)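 Glucosamine-6-phosphate in HEPES/KCl/Mg(OAc)2 buffer, at 40 μM to 10 mM, was flowed over barcoded ribozyme variants transcribed in situ by E. coli RNA polymerase on sequenced MiSeq chips. Tracking was through a hybridised Cy3 probe at 37 °C. kobs, kcat and KM came from exponential decay fits and weighted Michaelis–Menten fits of normalised per-tile medians.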
# glucosamine-6-phosphate [2] = variants of: B1; assay: self-cleavage kobs at 160 uM GlcN6P; higher = faster cleavage; RNA array
# Procedure, shortened: as §1
# glucosamine-6-phosphate [3] = variants of: B1; assay: self-cleavage kobs at 640 uM GlcN6P; higher = faster cleavage; RNA array
# Procedure, shortened: as §1
# glucosamine-6-phosphate [4] = variants of: B1; assay: self-cleavage kobs at 10000 uM GlcN6P; higher = faster cleavage; RNA array
# Procedure, shortened: as §1
# glucosamine-6-phosphate [5] = variants of: B1; assay: self-cleavage kobs at 2500 uM GlcN6P; higher = faster cleavage; RNA array
# Procedure, shortened: as §1
Variant,self-cleavage kobs at 40 uM GlcN6P (glucosamine-6-phosphate [1]),self-cleavage kobs at 160 uM GlcN6P (glucosamine-6-phosphate [2]),self-cleavage kobs at 640 uM GlcN6P (glucosamine-6-phosphate [3]),self-cleavage kobs at 10000 uM GlcN6P (glucosamine-6-phosphate [4]),self-cleavage kobs at 2500 uM GlcN6P (glucosamine-6-phosphate [5])
AUAAAUGCGCCAGAACUACAGAAAUGUAGUUGUCGAGUAGGAGGUUUAUCGAAUUUUCGGCGGAUGCCUCCAAA [A6U A33U G38U],< 1e-05 s⁻¹,< 1e-05 s⁻¹,< 1e-05 s⁻¹,,
AUAAAUGGGCCAGAACUACAGAAAUGUAGUUGACGAGGAGGAGGUUUUUCGAAUUUUCGGCCGAUGCCUCCAAA [A6U C8G A48U G62C],< 1e-05 s⁻¹,,,,
AUAAAGGCGCCAGAACUACAGAAAUGUAGUGGACGAGGAGGCGGUUUGUCGAAUUUUCGGCGGAUGGCUCCAAA [A6G U31G A42C A48G C67G],< 1e-05 s⁻¹,,,,
AUAAAUGCGCCAGAACUACAGAAAUGUAGUUGACGAGGAGGAGGUUUAUCGAAUUUUACGCGGGUGCCUCCAAA [A6U C58A G59C A64G],< 1e-05 s⁻¹,,,< 1e-05 s⁻¹,
AUAAAUGCGCCAGAAUUACAGAAAUGUAGCUGACGAGGAGGAGGUUUAUCGAAUUUUCGGCGGAUGCCUCCAAA [A6U C16U U30C],< 1e-05 s⁻¹,,,,
AUAAAUGCGCCUGAACUACAGAAAUGUAGUUGACGAGGAGGAGGUUUAUCGAAUUUUCGGCGGAGGCCUCCAAA [A6U A12U U65G],< 1e-05 s⁻¹,,,,
AUAAAGGCGCCAGAACUACAGAAAUGUAGUAUACGAGGAGGAGGUUUAUCGAAUUUUCGGCGGAUGCCUCCAAA [A6G U31A G32U],< 1e-05 s⁻¹,< 1e-05 s⁻¹,< 1e-05 s⁻¹,< 1e-05 s⁻¹,< 1e-05 s⁻¹
AUAAAUGCGCCAGAACUACAGAAAUGUAGUUGACGUGGAGGAGGUUUAUCGAAUUUUCGGCGGAUGCCUCCAAA [A6U A36U],< 1e-05 s⁻¹,< 1e-05 s⁻¹,< 1e-05 s⁻¹,< 1e-05 s⁻¹,< 1e-05 s⁻¹
AUAAAUGCGCAAGAACUACAGAAAUGUAGUUGACGAGGAGGAGGUUUAUCGAUUUUUCGGCGGAUGCCUCCAAA [A6U C11A A53U],< 1e-05 s⁻¹,,< 1e-05 s⁻¹,< 1e-05 s⁻¹,
AUAAAUGCGCGAGAACUACAGAAAUGUACUUGACGAGGAGGAGGCUUAUCGAAUUUUCGGCGGAUGCCUCCAAA [A6U C11G G29C U45C],< 1e-05 s⁻¹,,,,
AUAAAUGCGCCAGAACUACAGAAAUGUAGUUGACGAGGAGGGCGUUUAUCGAAUUUUCGGCGGAUGCCUCCAAA [A6U A42G G43C],< 1e-05 s⁻¹,,,,
AUAAAUCCGCCAGAACUACAGAAAUGUAGUUGACGAGGAGGAGGUUUAUCGAAUUUUCGGCGGAUGCCUCCAAA [A6U G7C],< 1e-05 s⁻¹,,< 1e-05 s⁻¹,< 1e-05 s⁻¹,< 1e-05 s⁻¹
AUAAAUGCGCUAGAAAUACAGAAAUGUAGCUGACGAGGAGGAGGUUUAUGGAAUUUUCGGCGGAUGCCUCCAAA [A6U C11U C16A U30C C50G],0.000167 ± 2.9e-05 s⁻¹,,,0.000181 ± 2.9e-05 s⁻¹,0.000224 ± 9e-05 s⁻¹
AUAAAGGCGCCAGAACUACAGAAAUGUAGUUGACGAGGAGGAGGUUUAUCGAAUUUUCGGCGGAUUCCUCCAAA [A6G G66U],< 1e-05 s⁻¹,< 1e-05 s⁻¹,< 1e-05 s⁻¹,,
AUAAAGGCGCCAGAACUACAGAAAUGUAGUUGACGAGGAGGAGGUUUACCGAAUUUUCGGCGGAUGCCUCCAAA [A6G U49C],< 1e-05 s⁻¹,< 1e-05 s⁻¹,< 1e-05 s⁻¹,,< 1e-05 s⁻¹
AUAAAUGCGCUAGAACUACAGAAAUGUAGUUGACGAGGAGGAGUUUUAUCGAAUUUUCGGCGGAUGCCUCCAAA [A6U C11U G44U],< 1e-05 s⁻¹,,< 1e-05 s⁻¹,< 1e-05 s⁻¹,< 1e-05 s⁻¹
AUAAAUGCGCCGGAACUACAGAAAUGUAGUUGACGAGGAGGCGGUUUAUCGUAUUUUCGGCGGGUGCGUCCAAA [A6U A12G A42C A52U A64G C68G],< 1e-05 s⁻¹,,,< 1e-05 s⁻¹,< 1e-05 s⁻¹

Variant,self-cleavage kobs at 40 uM GlcN6P (glucosamine-6-phosphate [1]),self-cleavage kobs at 160 uM GlcN6P (glucosamine-6-phosphate [2]),self-cleavage kobs at 640 uM GlcN6P (glucosamine-6-phosphate [3]),self-cleavage kobs at 10000 uM GlcN6P (glucosamine-6-phosphate [4]),self-cleavage kobs at 2500 uM GlcN6P (glucosamine-6-phosphate [5])
AUAAAUGCGCCCGAACUACAGAAAUGUAGUUGACGAGGAGGAGGUUUAUCGAAUUAUCGGCAGAUGCCUCCAAA [A6U A12C U56A G62A],< 1e-05 s⁻¹,,,,
AUAAAUGCGCCAGAACUACAGAAAUGUAGUUGAUGAGGAGGAGGUUUAUCGAAUUUUUGGCGGAUGCCUCCAAA [A6U C34U C58U],< 1e-05 s⁻¹,,,,
AUAAAGGCGCCAGAACUACAGAAAUGUAGUUGACGAGGAGGAGGUUUAUCGAAUUUUCGGCGAAUGCCUCCAAA [A6G G63A],< 1e-05 s⁻¹,< 1e-05 s⁻¹,< 1e-05 s⁻¹,< 1e-05 s⁻¹,< 1e-05 s⁻¹
AUAAAUGCGCUAGAACUACAGAAAUUUAGUUGACGAGGAGGAGGUUUAUCGAAUUCUCGGCGGAUGCCUCCAAA [A6U C11U G26U U56C],< 1e-05 s⁻¹,,,,
AUAAAGGCGCCAGAACUACAGAAAUGUAGUUGACGAGGAGGAGGUUUAUCGAAUUUCCGGCGGAUGCCUCCAAA [A6G U57C],< 1e-05 s⁻¹,< 1e-05 s⁻¹,< 1e-05 s⁻¹,,< 1e-05 s⁻¹
AUAAAGGCGCCAGAACUACAGAAAUGUAGUUGACGAGGAGGAGGUAUAUCGAAUUUUCGGCGGAUGCCUCCAAA [A6G U46A],< 1e-05 s⁻¹,< 1e-05 s⁻¹,,,
AUAAAGGCGCCAGAACUACAGAAAUGUAGUUGACGAGGAGGAGGUGUAUCGAAUUUUCGGCGGAUGCCUCCAAA [A6G U46G],< 1e-05 s⁻¹,< 1e-05 s⁻¹,,7.11e-05 ± 8.7e-06 s⁻¹,
AUAAAUGCGCCAGAACUACAGAAAUGUAGUUGACGUGGAGGAGGUUUAUCGAAUUUUCGGCGGAUGCCUUCAAA [A6U A36U C70U],< 1e-05 s⁻¹,,,,
AUAAAGGCGCCAGAACUACAGAAAUGUAGUUGACGAGGAGGAGGUGUAUGGAAUUUUCGGCGGAGGCCUACAAA [A6G U46G C50G U65G C70A],< 1e-05 s⁻¹,,,,
AUAAAUGCGCCUGAACUACAGAAAUGUAGUUCCCGAGGAGGAGGUUUAUAGAAUUUUCGGCGGAUGCCUCCAAA [A6U A12U G32C A33C C50A],< 1e-05 s⁻¹,,,< 1e-05 s⁻¹,
AUAAAGGCGCCAGAACUACAGAAAUGUAGCUGACAAGGGAGAGGUUUAUCGAAUUUUCGGCGGAUACCUCCAAA [A6G U30C G35A A39G G40A G66A],< 1e-05 s⁻¹,,,< 1e-05 s⁻¹,
AUAAAUGCGCCAGACCUACAGAAAUGUAGUUAACGAGGAGGAGGUUUAUCGAAUUUUCGGCGCUUGCCUCCAAA [A6U A15C G32A G63C A64U],< 1e-05 s⁻¹,,,,
AUAAAGGCGCCAGAACUACAGAAAUGUAGGUGACUAGGAGGAGGCUUAUCGAAUUUUCUGCGGAUGCCUCCAAA [A6G U30G G35U U45C G59U],< 1e-05 s⁻¹,,,< 1e-05 s⁻¹,
AUAAAGGCGCCAGAACUACAGAAAUGUAGUCGACGAGGAGGAGGUUUAUCGAAUUUUCGGCGGAUGCCUCUAAA [A6G U31C C71U],< 1e-05 s⁻¹,,,,
AUAAAGGCGCCAGAACUACAGAAAUGUAGUGGAGGAGGAGGAGGUUUAUCGAAUUUUCGGCGGAUGCCUCCAAA [A6G U31G C34G],< 1e-05 s⁻¹,,< 1e-05 s⁻¹,< 1e-05 s⁻¹,
AUAAAUGCGCCAGAACUACAGAAAUGUAGUUGACGCGGAGGAGGUUUAUUGAAUUUUCGGCGGGUGCCUCCAAA [A6U A36C C50U A64G],< 1e-05 s⁻¹,,,,
AUAAAUGCGCCAGAACUACAGAAAUGUAGUUGACGAGGAGGAGGUUUCUUGUAUUUUCGGUGGAUGGGUCCAAA [A6U A48C C50U A52U C61U C67G C68G],< 1e-05 s⁻¹,,,,
